# Laboratory results from patent US20230406885A1, “CYCLIC PEPTIDES FOR TRAPPING INTERLEUKIN-1 BETA” (MERCK SHARP & DOHME LLC, priority 2022, published 2023).
# *1 amine or outer side, *2 acyl side, *3 side chain or, on linkers, in order; H or OH if unused. [ ]: non-standard residue; d: D form. 3AzaPhe4AcPip = (S)-3-(6-(4-acetylpiperazin-1-yl)pyridin-3-yl)-2-aminopropanoic acid, CC(=O)N1CCN(c2ccc(C[C@H](N[*:1])C(=O)[*:2])cn2)CC1; Pro(trans-4-NH2) = O=C([C@@H]1C[C@@H](N[*:3])CN1[*:1])[*:2]; Trp(βS-Me,4-F) = C[C@@H](c1c[nH]c2cccc(F)c12)[C@H](N)C(=O)O; Bip(4'-COOH) = N[C@@H](Cc1ccc(-c2ccc(C(=O)O)cc2)cc1)C(=O)O; Phe(3-CH2NH2) = O=C([C@H](Cc1cccc(CN[*:3])c1)N[*:1])[*:2]; mBip = (S)-2-amino-3-(3-phenylphenyl)propanoic acid; Phe(3-allyloxy) = C=CCOc1cccc(C[C@H](N)C(=O)O)c1; Phe(4-COOH) = N[C@@H](Cc1ccc(C(=O)O)cc1)C(=O)O; hTyr = N[C@@H](CCc1ccc(O)cc1)C(=O)O; dDab = NCC[C@@H](N)C(=O)O; dNMeA = CN[C@H](C)C(=O)O; Nva = CCC[C@H](N)C(=O)O
# Molecular target: Recombinant human IL-1β (BioLegend 579404) (human, UniProt P01584 117-269)
# Test: cell-based or functional assay
row,Binder,MRC5 IC50 [nM]
1,"cyclo([Bip(4'-COOH)]W[Phe(4-COOH)]G[Pro(trans-4-NH2)][Trp(βS-Me,4-F)]D[dNMeA]G[Bip(4'-COOH)]KLG[hTyr]) (SMILES CC(C)C[C@@H]1NC(=O)[C@H](CCCCN)NC(=O)[C@H](Cc2ccc(-c3ccc(C(=O)O)cc3)cc2)NC(=O)CNC(=O)[C@@H](C)N(C)C(=O)[C@H](CC(=O)O)NC(=O)[C@H]([C@@H](C)c2c[nH]c3cccc(F)c23)NC(=O)[C@@H]2C[C@@H](N)CN2C(=O)CNC(=O)[C@H](Cc2ccc(C(=O)O)cc2)NC(=O)[C@H](Cc2c[nH]c3ccccc23)NC(=O)[C@H](Cc2ccc(-c3ccc(C(=O)O)cc3)cc2)NC(=O)[C@H](CCc2ccc(O)cc2)NC(=O)CNC1=O) [SEQ ID NO: 70]",0.0973
2,"cyclo([Bip(4'-COOH)]W[Phe(4-COOH)]G[Pro(trans-4-NH2)][Trp(βS-Me,4-F)]D[dNMeA]G[Bip(4'-COOH)]K[Nva][dA][hTyr]) (SMILES CCC[C@@H]1NC(=O)[C@H](CCCCN)NC(=O)[C@H](Cc2ccc(-c3ccc(C(=O)O)cc3)cc2)NC(=O)CNC(=O)[C@@H](C)N(C)C(=O)[C@H](CC(=O)O)NC(=O)[C@H]([C@@H](C)c2c[nH]c3cccc(F)c23)NC(=O)[C@@H]2C[C@@H](N)CN2C(=O)CNC(=O)[C@H](Cc2ccc(C(=O)O)cc2)NC(=O)[C@H](Cc2c[nH]c3ccccc23)NC(=O)[C@H](Cc2ccc(-c3ccc(C(=O)O)cc3)cc2)NC(=O)[C@H](CCc2ccc(O)cc2)NC(=O)[C@@H](C)NC1=O) [SEQ ID NO: 71]",0.0926
3,"cyclo([Bip(4'-COOH)]W[Phe(4-COOH)]G[Pro(trans-4-NH2)][Trp(βS-Me,4-F)]D[dNMeA]G[Bip(4'-COOH)]KS[dA][hTyr]) (SMILES C[C@@H]1C(=O)NCC(=O)N[C@@H](Cc2ccc(-c3ccc(C(=O)O)cc3)cc2)C(=O)N[C@@H](CCCCN)C(=O)N[C@@H](CO)C(=O)N[C@H](C)C(=O)N[C@@H](CCc2ccc(O)cc2)C(=O)N[C@@H](Cc2ccc(-c3ccc(C(=O)O)cc3)cc2)C(=O)N[C@@H](Cc2c[nH]c3ccccc23)C(=O)N[C@@H](Cc2ccc(C(=O)O)cc2)C(=O)NCC(=O)N2C[C@H](N)C[C@H]2C(=O)N[C@@H]([C@@H](C)c2c[nH]c3cccc(F)c23)C(=O)N[C@@H](CC(=O)O)C(=O)N1C) [SEQ ID NO: 72]",0.107
4,"cyclo([Bip(4'-COOH)]W[Phe(4-COOH)]G[Pro(trans-4-NH2)][Trp(βS-Me,4-F)]D[dNMeA]G[Bip(4'-COOH)][Phe(3-CH2NH2)]L[dA][hTyr]) (SMILES CC(C)C[C@@H]1NC(=O)[C@H](Cc2cccc(CN)c2)NC(=O)[C@H](Cc2ccc(-c3ccc(C(=O)O)cc3)cc2)NC(=O)CNC(=O)[C@@H](C)N(C)C(=O)[C@H](CC(=O)O)NC(=O)[C@H]([C@@H](C)c2c[nH]c3cccc(F)c23)NC(=O)[C@@H]2C[C@@H](N)CN2C(=O)CNC(=O)[C@H](Cc2ccc(C(=O)O)cc2)NC(=O)[C@H](Cc2c[nH]c3ccccc23)NC(=O)[C@H](Cc2ccc(-c3ccc(C(=O)O)cc3)cc2)NC(=O)[C@H](CCc2ccc(O)cc2)NC(=O)[C@@H](C)NC1=O) [SEQ ID NO: 73]",0.0509
5,"cyclo([Bip(4'-COOH)]W[Phe(4-COOH)]G[Pro(trans-4-NH2)][Trp(βS-Me,4-F)]D[dNMeA]G[Bip(4'-COOH)][Phe(3-CH2NH2)]S[dA][hTyr]) (SMILES C[C@@H]1C(=O)NCC(=O)N[C@@H](Cc2ccc(-c3ccc(C(=O)O)cc3)cc2)C(=O)N[C@@H](Cc2cccc(CN)c2)C(=O)N[C@@H](CO)C(=O)N[C@H](C)C(=O)N[C@@H](CCc2ccc(O)cc2)C(=O)N[C@@H](Cc2ccc(-c3ccc(C(=O)O)cc3)cc2)C(=O)N[C@@H](Cc2c[nH]c3ccccc23)C(=O)N[C@@H](Cc2ccc(C(=O)O)cc2)C(=O)NCC(=O)N2C[C@H](N)C[C@H]2C(=O)N[C@@H]([C@@H](C)c2c[nH]c3cccc(F)c23)C(=O)N[C@@H](CC(=O)O)C(=O)N1C) [SEQ ID NO: 74]",0.296
6,"cyclo([Bip(4'-COOH)]W[Phe(4-COOH)]G[Pro(trans-4-NH2)][Trp(βS-Me,4-F)]D[dNMeA]G[Bip(4'-COOH)][mBip]L[dA][hTyr]) [SEQ ID NO: 75]",0.165
7,"cyclo([Bip(4'-COOH)]W[Phe(4-COOH)]G[Pro(trans-4-NH2)][Trp(βS-Me,4-F)]D[dNMeA]G[Bip(4'-COOH)][Phe(3-allyloxy)]L[dA][hTyr]) (SMILES C=CCOc1cccc(C[C@@H]2NC(=O)[C@H](Cc3ccc(-c4ccc(C(=O)O)cc4)cc3)NC(=O)CNC(=O)[C@@H](C)N(C)C(=O)[C@H](CC(=O)O)NC(=O)[C@H]([C@@H](C)c3c[nH]c4cccc(F)c34)NC(=O)[C@@H]3C[C@@H](N)CN3C(=O)CNC(=O)[C@H](Cc3ccc(C(=O)O)cc3)NC(=O)[C@H](Cc3c[nH]c4ccccc34)NC(=O)[C@H](Cc3ccc(-c4ccc(C(=O)O)cc4)cc3)NC(=O)[C@H](CCc3ccc(O)cc3)NC(=O)[C@@H](C)NC(=O)[C@H](CC(C)C)NC2=O)c1) [SEQ ID NO: 76]",0.122
8,"cyclo([Bip(4'-COOH)]W[Phe(4-COOH)]G[Pro(trans-4-NH2)][Trp(βS-Me,4-F)]D[dNMeA]G[Bip(4'-COOH)]WG[dDab][hTyr]) (SMILES C[C@@H]1C(=O)NCC(=O)N[C@@H](Cc2ccc(-c3ccc(C(=O)O)cc3)cc2)C(=O)N[C@@H](Cc2c[nH]c3ccccc23)C(=O)NCC(=O)N[C@H](CCN)C(=O)N[C@@H](CCc2ccc(O)cc2)C(=O)N[C@@H](Cc2ccc(-c3ccc(C(=O)O)cc3)cc2)C(=O)N[C@@H](Cc2c[nH]c3ccccc23)C(=O)N[C@@H](Cc2ccc(C(=O)O)cc2)C(=O)NCC(=O)N2C[C@H](N)C[C@H]2C(=O)N[C@@H]([C@@H](C)c2c[nH]c3cccc(F)c23)C(=O)N[C@@H](CC(=O)O)C(=O)N1C) [SEQ ID NO: 77]",0.0601
9,"cyclo([Bip(4'-COOH)]W[Phe(4-COOH)]G[Pro(trans-4-NH2)][Trp(βS-Me,4-F)]D[dNMeA]G[Bip(4'-COOH)]WL[dA][hTyr]) (SMILES CC(C)C[C@@H]1NC(=O)[C@H](Cc2c[nH]c3ccccc23)NC(=O)[C@H](Cc2ccc(-c3ccc(C(=O)O)cc3)cc2)NC(=O)CNC(=O)[C@@H](C)N(C)C(=O)[C@H](CC(=O)O)NC(=O)[C@H]([C@@H](C)c2c[nH]c3cccc(F)c23)NC(=O)[C@@H]2C[C@@H](N)CN2C(=O)CNC(=O)[C@H](Cc2ccc(C(=O)O)cc2)NC(=O)[C@H](Cc2c[nH]c3ccccc23)NC(=O)[C@H](Cc2ccc(-c3ccc(C(=O)O)cc3)cc2)NC(=O)[C@H](CCc2ccc(O)cc2)NC(=O)[C@@H](C)NC1=O) [SEQ ID NO: 78]",0.0732
10,"cyclo([Bip(4'-COOH)]W[Phe(4-COOH)]G[Pro(trans-4-NH2)][Trp(βS-Me,4-F)]D[dNMeA]G[Bip(4'-COOH)]W[Nva][dA]A) (SMILES CCC[C@@H]1NC(=O)[C@H](Cc2c[nH]c3ccccc23)NC(=O)[C@H](Cc2ccc(-c3ccc(C(=O)O)cc3)cc2)NC(=O)CNC(=O)[C@@H](C)N(C)C(=O)[C@H](CC(=O)O)NC(=O)[C@H]([C@@H](C)c2c[nH]c3cccc(F)c23)NC(=O)[C@@H]2C[C@@H](N)CN2C(=O)CNC(=O)[C@H](Cc2ccc(C(=O)O)cc2)NC(=O)[C@H](Cc2c[nH]c3ccccc23)NC(=O)[C@H](Cc2ccc(-c3ccc(C(=O)O)cc3)cc2)NC(=O)[C@H](C)NC(=O)[C@@H](C)NC1=O) [SEQ ID NO: 79]",0.189
11,"cyclo([3AzaPhe4AcPip]W[Phe(4-COOH)]G[Pro(trans-4-NH2)][Trp(βS-Me,4-F)]D[dNMeA]G[Bip(4'-COOH)]WG[dDab][hTyr]) (SMILES CC(=O)N1CCN(c2ccc(C[C@@H]3NC(=O)[C@H](CCc4ccc(O)cc4)NC(=O)[C@@H](CCN)NC(=O)CNC(=O)[C@H](Cc4c[nH]c5ccccc45)NC(=O)[C@H](Cc4ccc(-c5ccc(C(=O)O)cc5)cc4)NC(=O)CNC(=O)[C@@H](C)N(C)C(=O)[C@H](CC(=O)O)NC(=O)[C@H]([C@@H](C)c4c[nH]c5cccc(F)c45)NC(=O)[C@@H]4C[C@@H](N)CN4C(=O)CNC(=O)[C@H](Cc4ccc(C(=O)O)cc4)NC(=O)[C@H](Cc4c[nH]c5ccccc45)NC3=O)cn2)CC1) [SEQ ID NO: 8]",0.14
12,"cyclo([Bip(4'-COOH)]W[Phe(4-COOH)]G[Pro(trans-4-NH2)][Trp(βS-Me,4-F)]N[dNMeA]G[Bip(4'-COOH)]KL[dA][hTyr]) (SMILES CC(C)C[C@@H]1NC(=O)[C@H](CCCCN)NC(=O)[C@H](Cc2ccc(-c3ccc(C(=O)O)cc3)cc2)NC(=O)CNC(=O)[C@@H](C)N(C)C(=O)[C@H](CC(N)=O)NC(=O)[C@H]([C@@H](C)c2c[nH]c3cccc(F)c23)NC(=O)[C@@H]2C[C@@H](N)CN2C(=O)CNC(=O)[C@H](Cc2ccc(C(=O)O)cc2)NC(=O)[C@H](Cc2c[nH]c3ccccc23)NC(=O)[C@H](Cc2ccc(-c3ccc(C(=O)O)cc3)cc2)NC(=O)[C@H](CCc2ccc(O)cc2)NC(=O)[C@@H](C)NC1=O) [SEQ ID NO: 80]",0.291
13,"cyclo([Bip(4'-COOH)]W[Phe(4-COOH)]G[Pro(trans-4-NH2)][Trp(βS-Me,4-F)]N[dNMeA]G[Bip(4'-COOH)]KL[dDab][hTyr]) (SMILES CC(C)C[C@@H]1NC(=O)[C@H](CCCCN)NC(=O)[C@H](Cc2ccc(-c3ccc(C(=O)O)cc3)cc2)NC(=O)CNC(=O)[C@@H](C)N(C)C(=O)[C@H](CC(N)=O)NC(=O)[C@H]([C@@H](C)c2c[nH]c3cccc(F)c23)NC(=O)[C@@H]2C[C@@H](N)CN2C(=O)CNC(=O)[C@H](Cc2ccc(C(=O)O)cc2)NC(=O)[C@H](Cc2c[nH]c3ccccc23)NC(=O)[C@H](Cc2ccc(-c3ccc(C(=O)O)cc3)cc2)NC(=O)[C@H](CCc2ccc(O)cc2)NC(=O)[C@@H](CCN)NC1=O) [SEQ ID NO: 81]",0.255
